From patent US20170129954A1 (PROTHENA BIOSCIENCES, published 2017)

Assays:
[1] = target: T1, human MCAM (antigen of the BLI kinetics in Example 7) (human, UniProt P43121 24-559, limits assumed); test: BLI, ForteBio Octet QK, apparent KD
T1 chain: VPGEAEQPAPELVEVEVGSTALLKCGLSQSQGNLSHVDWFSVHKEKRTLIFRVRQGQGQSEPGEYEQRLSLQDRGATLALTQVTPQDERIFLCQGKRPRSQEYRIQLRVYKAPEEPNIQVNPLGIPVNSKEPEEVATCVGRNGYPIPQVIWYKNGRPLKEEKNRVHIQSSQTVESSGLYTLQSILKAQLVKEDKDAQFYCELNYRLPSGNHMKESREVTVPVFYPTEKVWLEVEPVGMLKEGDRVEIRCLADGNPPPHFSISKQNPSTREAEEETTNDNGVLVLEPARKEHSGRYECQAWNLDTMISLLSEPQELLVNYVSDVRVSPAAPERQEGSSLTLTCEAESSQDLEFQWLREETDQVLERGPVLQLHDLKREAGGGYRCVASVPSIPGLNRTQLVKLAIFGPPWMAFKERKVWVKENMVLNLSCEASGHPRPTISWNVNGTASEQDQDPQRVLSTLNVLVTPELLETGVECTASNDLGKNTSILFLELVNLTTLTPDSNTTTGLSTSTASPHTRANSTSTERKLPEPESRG
Excerpt: Apparent ka, apparent kd and apparent KD are binding kinetic parameters obtained using ForteBio assay formats.

[2] = target: T2, human MCAM, full length, expressed on transfected cells (human, UniProt P43121 24-646); test: flow cytometry, blocking of recombinant human laminin 411 (20 ug/ml) binding to CHO cells expressing human MCAM
T2 construct: also called CD146; MUC18
T2 chain: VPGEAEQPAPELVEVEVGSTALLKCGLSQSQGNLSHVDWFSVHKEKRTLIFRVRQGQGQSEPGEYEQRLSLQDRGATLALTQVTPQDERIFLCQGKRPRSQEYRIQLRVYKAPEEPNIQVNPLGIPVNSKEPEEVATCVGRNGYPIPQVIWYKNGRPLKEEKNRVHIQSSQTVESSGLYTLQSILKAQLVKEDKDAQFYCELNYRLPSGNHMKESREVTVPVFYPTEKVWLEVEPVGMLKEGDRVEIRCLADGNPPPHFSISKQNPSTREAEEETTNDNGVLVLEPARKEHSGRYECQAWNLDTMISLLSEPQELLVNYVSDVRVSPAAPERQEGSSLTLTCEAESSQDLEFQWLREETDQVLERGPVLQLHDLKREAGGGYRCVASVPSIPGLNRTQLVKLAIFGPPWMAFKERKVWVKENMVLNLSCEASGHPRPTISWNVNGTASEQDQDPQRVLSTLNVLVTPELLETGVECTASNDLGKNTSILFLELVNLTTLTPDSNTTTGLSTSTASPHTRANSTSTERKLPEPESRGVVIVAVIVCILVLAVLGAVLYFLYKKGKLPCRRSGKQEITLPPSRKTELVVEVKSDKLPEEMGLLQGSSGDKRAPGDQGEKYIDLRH
Protocol: The 87 independent mouse fusion clones and 26 independent rat fusion clones described in Example 1 above as being capable of (i) binding to human MCAM, and (ii) blocking the interaction between human MCAM and the α-4 chain of laminin were further characterized as follows. First, IC50 quantitation for the ability of the monoclonal antibody to block the binding of human MCAM to the α-4 chain of laminin was determined as follows. CHO cells expressing human MCAM were incubated with an anti-human MCAM antibody (at various concentrations) for 30 minutes at 4 degrees Celsius. […] Unbound laminin was then washed away, and the laminin bound to the surface of the cells was detected with fluorescently labeled anti-laminin antibodies. After washing, the amount of laminin bound to the surface was detected by flow cytometry, and IC50s were calculated based on the mean fluorescent intensity.
Amino acid and nucleic acid sequences of the heavy and light chains of these antibodies, and their hypervariable regions, are provided in SEQ ID NOs:29-92. […] As such, each of these specific monoclonal antibodies was very capable of binding to human MCAM and inhibiting the interaction of cell-expressed human MCAM with its α-4 laminin binding ligand.

[3] = target: T3, human MCAM W377A mutant (shotgun mutagenesis library, on BHK cells) (human, UniProt P43121 24-646); test: shotgun mutagenesis library, immunofluorescence on BHK cells, triplicate, background-subtracted and normalized to WT
T3 chain: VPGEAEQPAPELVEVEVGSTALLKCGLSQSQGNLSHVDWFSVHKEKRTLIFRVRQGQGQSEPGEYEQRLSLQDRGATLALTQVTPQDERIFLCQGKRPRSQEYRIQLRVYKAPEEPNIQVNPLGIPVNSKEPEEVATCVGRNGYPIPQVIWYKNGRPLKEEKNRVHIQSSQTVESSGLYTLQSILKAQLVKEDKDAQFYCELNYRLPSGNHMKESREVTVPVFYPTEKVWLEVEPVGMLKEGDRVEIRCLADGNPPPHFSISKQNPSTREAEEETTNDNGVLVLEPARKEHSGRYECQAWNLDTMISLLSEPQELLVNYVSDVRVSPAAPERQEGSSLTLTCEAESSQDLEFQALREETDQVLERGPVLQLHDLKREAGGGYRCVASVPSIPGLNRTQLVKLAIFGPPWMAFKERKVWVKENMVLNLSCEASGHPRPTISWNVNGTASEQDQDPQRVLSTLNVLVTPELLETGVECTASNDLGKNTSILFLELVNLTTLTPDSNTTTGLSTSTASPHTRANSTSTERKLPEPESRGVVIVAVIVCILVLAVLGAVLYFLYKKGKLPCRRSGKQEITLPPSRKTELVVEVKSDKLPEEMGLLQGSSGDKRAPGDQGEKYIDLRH
Protocol: The mutation library was assayed for surface expression (mouse sera binding) and monoclonal antibody binding, in triplicate. Each raw data point was background-subtracted and normalized to the wild type MCAM reactivity values. The mean monoclonal antibody binding value for each clone is plotted as a function of its mean surface expression value (FIG. 1, gray diamonds). Thresholds of <30% monoclonal antibody reactivity and >50% mouse sera binding were applied to identify clones (FIG. 1, black diamonds) that were negative for monoclonal antibody binding but positive for surface expression.
Residues involved in antibody binding were identified as those that were negative for monoclonal antibody binding (<30% WT) but positive for surface expression (>50% WT) (Table 4). The mean reactivity (and standard deviation) were determined for each critical residue.

Kd [1]: 0.286 nM
IC50 [2]: 0.545 µg/mL
B1: mouse anti-human MCAM monoclonal antibody clone 1749.1.3 (antibody, V domains shown)
VH: DVKLVESGGDLVKPGGSLKLSCAASGFTFSSYIMSWVRQTPEKRLEWVATISSGGSSTYYPDSVKGRFTISRDNAKNTLYLQMSSLKSEDTAMYYCTRDDDYDVKVFAYWGQGTLVTVSA
VL: DIVMSQSPSSLAVSAGEKVTMNCKSSRSLLNSRIRKNYLAWYQQKPGQSPKLLIYWASTRESGVPDRFTGSGSGTDFTLTISSVQAEDLAVYYCKQSYNLLTFGAGTKLELK
notes: Mouse hybridoma monoclonal antibody; also called m1749
mean reactivity (% of wild type MCAM), standard deviation in brackets [3]: 13.7 % of WT
